Assay [1] has as its target α-synuclein fibrils (human) (UniProt P37840). Description: inhibition ELISA; fibrils against monomers. In general terms: In an ELISA, binding on a coated surface is turned into a signal by an enzyme label.
For assay [2] the target is unchanged. The experiment in a line: SPR, BIAcore X100; fibrils immobilised on CM5, mAb injected at 0.01-10 nM. (SPR reads the build-up and loss of mass on a sensor chip optically.)

“Syn-1 (Mouse anti-α-synuclein; BD Bioscience) (antibody)” gave a Fold Affinity to Fibrils in assay [1] of 0.476 fold.
In assay [2], “mAb 211 (Santa Cruz Biotechnology) (antibody)” displayed a Kd of 2.56 nM, an off-rate constant (koff) of 0.000422 s⁻¹ and a kon of 165000 M⁻¹ s⁻¹.

Broadly, the Kd is a measure of binding affinity in units of concentration. Broadly, the koff is the rate constant with which the complex falls apart. A lower koff goes with a long-lived complex. Usually kon stands for the rate constant with which the complex forms. Lower therefore signals slow association.
